Experiment [1] concerns the target human FOLR1 (recombinant antigen) (human) (UniProt P15328). Put plainly: BLI (Octet), construct captured on AHC biosensor, hFOLR1 as analyte.
Another experiment deals with FOLR1 on OVCAR3 cells (UniProt P15328). Put plainly: cell binding to FOLR1-positive OVCAR3 cells.
Experiment [2] deals with human FOLR1 (recombinant antigen) (human) (UniProt P15328). Put plainly: ELISA on hFOLR1.
Experiment [3] has as its target FOLR1 on cells (OVCAR3, OV-90) (UniProt P15328). Put plainly: flow cytometry on FOLR1 expressing OV-90 cells, Geomeans RL1-H against Conc (nM) [top panel].

Sequence of FOLR1 on OVCAR3 cells (P15328 25-234): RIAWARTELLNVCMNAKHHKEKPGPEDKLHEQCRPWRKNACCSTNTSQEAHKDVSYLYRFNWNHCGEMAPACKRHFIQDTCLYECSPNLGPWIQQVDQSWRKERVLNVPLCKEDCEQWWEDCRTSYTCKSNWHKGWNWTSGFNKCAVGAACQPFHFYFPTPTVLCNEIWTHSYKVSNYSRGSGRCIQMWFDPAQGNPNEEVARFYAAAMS
Sequence of human FOLR1 (recombinant antigen) (human) (P15328 25-234 limits assumed): as the sequence (P15328 25-234) above
Sequence of FOLR1 on cells (OVCAR3, OV-90) (P15328 25-234): as above

B1: Anti-FOLR1x4 GGGGSx3 (monospecific tetravalent VHH-VHH-Fc) (antibody, part only; not given: hinge and wild-type Fc, not shown: a dimerising Fc or GST)
chain, part: QVQLVESGGGLVQPGGSLRLSCAASGFTVSNSVMAWYRQTPGNEREFVAIINSIGITNYADSVKGRFTISRDNSKNTLYLQMNSLRAEDTAVYVCNRNFDRIYWGQGTLVTVSSGGGGSGGGGSGGGGSQVQLVESGGGLVQPGGSLRLSCAASGFTVSNSVMAWYRQTPGNEREFVAIINSIGITNYADSVKGRFTISRDNSKNTLYLQMNSLRAEDTAVYVCNRNFDRIYWGQGTLVTVSS
For B1, in experiment [1], the Kd is 2.86 nM, the koff stood at 0.000953 s⁻¹ and the kon worked out at 333000 M⁻¹ s⁻¹. Also, the EC50 with FOLR1 on OVCAR3 cells worked out at 0.28 nM. The EC50 in experiment [2] stood at 0.12 nM.

B2: Farletuzumab (antibody, INN chains, looked up, V domains shown)
VH: EVQLVESGGGVVQPGRSLRLSCSASGFTFSGYGLSWVRQAPGKGLEWVAMISSGGSYTYYADSVKGRFAISRDNAKNTLFLQMDSLRPEDTGVYFCARHGDDPAWFAYWGQGTPVTVSS
VL: DIQLTQSPSSLSASVGDRVTITCSVSSSISSNNLHWYQQKPGKAPKPWIYGTSNLASGVPSRFSGSGSGTDYTFTISSLQPEDIATYYCQQWSSYPYMYTFGQGTKVEIKR
With B2, the EC50 came to 0.71 nM with FOLR1 on OVCAR3 cells and 0.12 nM in experiment [2]. In addition, the EC50 (read off the curve) in experiment [3] was determined as 2 nM.

B3: Anti-FOLR1x4 GGSx4 (monospecific tetravalent VHH-VHH-Fc) (antibody, part only; not given: hinge and wild-type Fc, not shown: a dimerising Fc or GST)
chain, part: QVQLVESGGGLVQPGGSLRLSCAASGFTVSNSVMAWYRQTPGNEREFVAIINSIGITNYADSVKGRFTISRDNSKNTLYLQMNSLRAEDTAVYVCNRNFDRIYWGQGTLVTVSSGGSGGSGGSGGSQVQLVESGGGLVQPGGSLRLSCAASGFTVSNSVMAWYRQTPGNEREFVAIINSIGITNYADSVKGRFTISRDNSKNTLYLQMNSLRAEDTAVYVCNRNFDRIYWGQGTLVTVSS
With B3, in experiment [1], the Kd is 2.85 nM, the koff was 0.000853 s⁻¹ and the kon came out at 299000 M⁻¹ s⁻¹. The EC50 in the experiment with FOLR1 on OVCAR3 cells came to 0.81 nM. For the same molecule, the EC50 in experiment [2] was 0.14 nM.

B4: Anti-FOLR1x4 GGSx3 (monospecific tetravalent VHH-VHH-Fc) (antibody, part only; not given: hinge and wild-type Fc, not shown: a dimerising Fc or GST)
chain, part: QVQLVESGGGLVQPGGSLRLSCAASGFTVSNSVMAWYRQTPGNEREFVAIINSIGITNYADSVKGRFTISRDNSKNTLYLQMNSLRAEDTAVYVCNRNFDRIYWGQGTLVTVSSGGSGGSGGSQVQLVESGGGLVQPGGSLRLSCAASGFTVSNSVMAWYRQTPGNEREFVAIINSIGITNYADSVKGRFTISRDNSKNTLYLQMNSLRAEDTAVYVCNRNFDRIYWGQGTLVTVSS
In the case of B4, in experiment [1], the Kd came to 2.52 nM, the koff stood at 0.00087 s⁻¹ and the kon was 345000 M⁻¹ s⁻¹. The concentration giving a half-maximal response (EC50) with FOLR1 on OVCAR3 cells came to 0.49 nM. Besides, the EC50 in experiment [2] turned out to be 0.11 nM.

Source of the values: patent US20260137822A1.
